Laboratory results: US20110038881A1 (published 2011)

Assays:
HLA-DRB1*0101 [1] = target: HLA-DRB1*0101 (human); assay: competition
HLA-DRB1*0701 = HLA-DRB1*0701 (human); assay: competition binding
HLA-DRB1*1301 = HLA-DRB1*1301 (human); assay: competition binding
HLA-DRB1*0301 = HLA-DRB1*0301 (human); assay: competition binding
HLA-DRB4*0101 = HLA-DRB4*0101 (human); assay: competition binding
HLA-DRB1*1101 = HLA-DRB1*1101 (human); assay: competition binding
HLA-DRB1*0101 [2] = target: HLA-DRB1*0101 (human); assay: competition binding
HLA-DRB3*0101 = HLA-DRB3*0101 (human); assay: competition binding
HLA-DRB1*0401 = HLA-DRB1*0401 (human); assay: competition binding
HLA-DRB1*1501 = HLA-DRB1*1501 (human); assay: competition binding
HLA-DRB5*0101 = HLA-DRB5*0101 (human); assay: competition binding

Binder	IC50 (HLA-DRB1*0101 [1]) [nM]	IC50 (HLA-DRB1*0701) [nM]	IC50 (HLA-DRB1*1301) [nM]	IC50 (HLA-DRB1*0301) [nM]	IC50 (HLA-DRB4*0101) [nM]	IC50 (HLA-DRB1*1101) [nM]	IC50 (HLA-DRB1*0101 [2]) [nM]	IC50 (HLA-DRB3*0101) [nM]	IC50 (HLA-DRB1*0401) [nM]	IC50 (HLA-DRB1*1501) [nM]	IC50 (HLA-DRB5*0101) [nM]
WRFLRGYHQYAYDGK [peptide p21 (residues 107-121 of HLA-A2)]	1	–	–	–	–	–	–	–	–	–	–
TQFVRFDSDAASQRM [peptide p7 (residues 31-45 of HLA-A2)]	–	786	> 100000	164	2180	4000	122	456	354	374	1550
